The target of the test is mouse CCR2 on mouse cells (splenocytes, T cells, plasma cells, macrophages, EG7 lymphoma cells) (mouse) (UniProt P51683). Nature of the test: cell-based or functional assay.
Chain of UniProt P51683 (P51683 whole entry): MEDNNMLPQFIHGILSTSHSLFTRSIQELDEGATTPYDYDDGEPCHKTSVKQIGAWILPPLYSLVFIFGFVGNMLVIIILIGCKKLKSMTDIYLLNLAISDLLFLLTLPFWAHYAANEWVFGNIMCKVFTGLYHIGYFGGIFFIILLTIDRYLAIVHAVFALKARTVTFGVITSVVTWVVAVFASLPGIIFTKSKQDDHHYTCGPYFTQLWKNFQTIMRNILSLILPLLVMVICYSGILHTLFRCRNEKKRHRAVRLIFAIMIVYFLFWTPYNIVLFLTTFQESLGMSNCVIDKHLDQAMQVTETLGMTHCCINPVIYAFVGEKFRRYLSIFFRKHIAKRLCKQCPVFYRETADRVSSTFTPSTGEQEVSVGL

With “recombinant CCL2 (rCCL2, CCL2 1-76) (from UniProt P10148 24-99) (ligand)”, the CD4 T-cells positive for intracellular IL17 was found to be 19% and the cell death of RA-derived CD4 T-cells, PI/Annexin-V co-staining, 48 h amounted to 15%.

For the origin of these results see patent publication US20110124552A1.
